These results are taken from PMC6391492, “Native mass spectrometry identifies an alternative DNA-binding pathway for BirA from Staphylococcus aureus”.

For series [1], the target named is S. aureus BirA (biotin retention protein A, biotin protein ligase), strain Mu50, wild type (S. aureus strain Mu50). As to the kind of experiment: native MS; holo proteins, 10 µM, with 5 µM SabioO oligonucleotide with only one BirA half site, 200 mM ammonium acetate pH 6.9, 4 °C at least 1 hour.
Series [2] has the same target. As to the kind of experiment: native MS; holo proteins (pre-incubated with 500 µM biotin, 1 mM ATP, 1 mM MgCl2 on ice, then buffer exchanged), no DNA, 10 µM protein in 200 mM ammonium acetate pH 6.85; dimer to monomers.
The target of the next series is EcBirA-R119W (Escherichia coli, UniProt P06709 1-321, R119W). The series is described as follows: native nESI-MS; holo (biotinyl-5'-AMP); two subunits on DNA; 10 uM protein; nESI-MS: 200 mM ammonium acetate pH 6.9, 10 uM protein, 5 uM DNA, 4 C >=1 h; EMSA: 50 mM Tris pH 8.0, 50 mM NaCl, 0.1 mM biotin, 1 mM ATP, 1 mM MgCl2, 10% glycerol, 10 nM DNA, room temperature 30 min. The following applies: protein: recombinant; label: none.

In another series the target is EcBirA (Escherichia coli, UniProt P06709 1-321). As to the kind of experiment: native nESI-MS; holo (biotinyl-5'-AMP); two subunits on DNA; nESI-MS: 200 mM ammonium acetate pH 6.9, 10 uM protein, 5 uM DNA, 4 C >=1 h; EMSA: 50 mM Tris pH 8.0, 50 mM NaCl, 0.1 mM biotin, 1 mM ATP, 1 mM MgCl2, 10% glycerol, 10 nM DNA, room temperature 30 min. As to conditions: protein: recombinant; chain copies: 2; label: none. Background: Mobility shift assays separate free from complexed probe on a gel.

Series [3] addresses T1, SaBirA-F123G (Staphylococcus aureus Mu50, UniProt A0A0H3JRH8 1-323, F123G). The series is described as follows: EMSA; holo; biotin, ATP, Mg2+; nESI-MS: 200 mM ammonium acetate pH 6.9, 10 uM protein, 5 uM DNA, 4 C >=1 h; EMSA: 50 mM Tris pH 8.0, 50 mM NaCl, 0.1 mM biotin, 1 mM ATP, 1 mM MgCl2, 10% glycerol, 10 nM DNA, room temperature 30 min. The following applies: protein: recombinant, label: none.

The target of series [4] is T2, SaBirA (Staphylococcus aureus Mu50, UniProt A0A0H3JRH8 1-323). The series is described as follows: native nESI-MS; apo; two subunits on DNA; nESI-MS: 200 mM ammonium acetate pH 6.9, 10 uM protein, 5 uM DNA, 4 C >=1 h; EMSA: 50 mM Tris pH 8.0, 50 mM NaCl, 0.1 mM biotin, 1 mM ATP, 1 mM MgCl2, 10% glycerol, 10 nM DNA, room temperature 30 min. As to conditions: protein: recombinant; label: none; blunt.

The target of series [5] is T1, SaBirA-F123G. The series is described as follows: native nESI-MS; apo; nESI-MS: 200 mM ammonium acetate pH 6.9, 10 uM protein, 5 uM DNA, 4 C >=1 h; EMSA: 50 mM Tris pH 8.0, 50 mM NaCl, 0.1 mM biotin, 1 mM ATP, 1 mM MgCl2, 10% glycerol, 10 nM DNA, room temperature 30 min. As to conditions: protein: recombinant; label: none; blunt.
For series [6], the target named is T2, SaBirA. Described as above. The following applies: protein: recombinant; label: none; blunt.
The target in series [7] is T2, SaBirA. The series is described as follows: EMSA; holo; biotin, ATP, Mg2+; up to 2 uM; nESI-MS: 200 mM ammonium acetate pH 6.9, 10 uM protein, 5 uM DNA, 4 C >=1 h; EMSA: 50 mM Tris pH 8.0, 50 mM NaCl, 0.1 mM biotin, 1 mM ATP, 1 mM MgCl2, 10% glycerol, 10 nM DNA, room temperature 30 min. The following applies: protein: recombinant; label: none; blunt.
Series [8] has as its target T1, SaBirA-F123G. As to the kind of experiment: native nESI-MS; apo; one subunit on DNA; nESI-MS: 200 mM ammonium acetate pH 6.9, 10 uM protein, 5 uM DNA, 4 C >=1 h; EMSA: 50 mM Tris pH 8.0, 50 mM NaCl, 0.1 mM biotin, 1 mM ATP, 1 mM MgCl2, 10% glycerol, 10 nM DNA, room temperature 30 min. The following applies: protein: recombinant; label: none; blunt.
Series [9] addresses T2, SaBirA. As to the kind of experiment: native nESI-MS; apo; one monomer on DNA, no dimer; nESI-MS: 200 mM ammonium acetate pH 6.9, 10 uM protein, 5 uM DNA, 4 C >=1 h; EMSA: 50 mM Tris pH 8.0, 50 mM NaCl, 0.1 mM biotin, 1 mM ATP, 1 mM MgCl2, 10% glycerol, 10 nM DNA, room temperature 30 min. As to conditions: protein: recombinant; label: none; blunt.

As to “S. aureus BirA (biotin retention protein A, biotin protein ligase), strain Mu50, wild type (enzyme)”, the stoichiometry N in series [1] and in series [2] was 2 in each case.

B1: EcbioO (dsDNA)
DNA 1: TAATCGACTTGTAAACCAAATTGAAAAGATTTAGGTTTACAAGTCTACAC
DNA 2: GTGTAGACTTGTAAACCTAAATCTTTTCAATTTGGTTTACAAGTCGATTA
Consider B1, for which the binding result in the series with EcBirA-R119W and with EcBirA was “binds” throughout.

B2: SabioO (dsDNA)
DNA 1: CCTTAAATGTAAACTTTTATAATTAATAAGTTTACATTTAAG
DNA 2: CCTTAAATGTAAACTTATTAATTATAAAAGTTTACATTTAAGG
For the molecule B2, the binding result with SaBirA-F123G [3] is “binds”.

B3: SabioY (full strands) (dsDNA)
DNA 1: AACTTATTGTAAACTTTTCATTTCTTAAAGTTTACAATGGTGCT
DNA 2: AGCACCATTGTAAACTTTAAGAAATGAAAAGTTTACAATAAGTT
On to B3, for which the binding result in the series with SaBirA [4] and with SaBirA-F123G [3] (blunt) was “binds” each time.

B4: HSm SabioO (both half-sites mutated) (dsDNA)
DNA 1: TTACACAGACGATTATTAATTATAAAAAGCAGACACCG
DNA 2: CGGTGTCTGCTTTTTATAATTAATAATCGTCTGTGTAA
Consider B4, for which the binding result with SaBirA-F123G [5] and in the series with SaBirA [6] was “no binding” throughout.

B5: HS2m SabioO (second half-site mutated) (dsDNA)
DNA 1: TTAAATGTAAACTTATTAATTATAAAAAGCAGACACCG
DNA 2: CGGTGTCTGCTTTTTATAATTAATAAGTTTACATTTAA
Turning to B5, the binding result with SaBirA [7] is reported as “no binding”.

B6: HS1m SabioO (first half-site mutated) (dsDNA)
DNA 1: TTACACAGACGATTATTAATTATAAAAGTTTACATTCG
DNA 2: CGAATGTAAACTTTTATAATTAATAATCGTCTGTGTAA
On to B6, for which the binding result with SaBirA-F123G [8] and with SaBirA [9] was “binds” in each case.

As a reminder, the stoichiometry N is a count of units in the complex or per binding partner.
